Patent US20240093310A1 (Dana-Farber, published 2024)

How the values were obtained:
[1] = target: T1, C-RAF S257P resistance mutant (human, UniProt P04049 1-648); assay: C-RAF immunoprecipitation, 14-3-3ζ immunoblot, 293T and A375 cells, no RAF inhibitor (FIG. 7A, 7B)
T1 construct: His/V5- or Flag-tagged in the homodimerization assays

[2] = target: T2, C-RAF P261T resistance mutant (human, UniProt P04049 1-648); assay: as above
T2 construct: His/V5- or Flag-tagged in the homodimerization assays

[3] = target: T3, C-RAF G361A resistance mutant (human, UniProt P04049 1-648); assay: as above
T3 construct: His/V5- or Flag-tagged in the homodimerization assays; also called 361G>A

wild-type human C-RAF = target: T4, wild-type human C-RAF (human, UniProt P04049 1-648); assay: C-RAF immunoprecipitation, 14-3-3ζ immunoblot, A375 cells with and without 2 µM vemurafenib (FIG. 7B)
T4 construct: In the homodimerization assays the copies carried a His/V5 tag or a Flag tag; also called WT-C-RAF; C-RAF (WT)

Measured: binding result

B1: 14-3-3 ζ (other, UniProt P63104 1-245, looked up)
chain: MDKNELVQKAKLAEQAERYDDMAACMKSVTEQGAELSNEERNLLSVAYKNVVGARRSSWRVVSSIEQKTEGAEKKQQMAREYREKIETELRDICNDVLSLLEKFLIPNASQAESKVFYLKMKGDYYRYLAEVAAGDDKKGIVDQSQQAYQEAFEISKKEMQPTHPIRLGLALNFSVFYYEILNSPEKACSLAKTAFDEAIAELDTLSEESYKDSTLIMQLLRDNLTLWTSDTQGDEAEAGEGGEN
notes: The Western blot methods list a 14-3-3ζ antibody (Cell Signaling)
binds: [1] | [2] | [3] | wild-type human C-RAF
